Legend:
Assay in all cases: holdup assay
Parameters in all cases: key: below the threshold = too weak to quantify, mostly under pKd 3.1 to 4
NHERF4_1, Q86UT5-2 = target: NHERF4_1, Q86UT5-2
AHNAK1, Q09666 = target: AHNAK1, Q09666
FRMPD1, Q5SYB0 = target: T1, FRMPD1, Q5SYB0
T1 sequence (Q5SYB0 52-145, limits assumed, looked up): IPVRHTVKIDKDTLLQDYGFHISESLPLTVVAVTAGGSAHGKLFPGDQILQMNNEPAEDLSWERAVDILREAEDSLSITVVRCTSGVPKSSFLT

FRMPD3, Q5JV73 = target: FRMPD3, Q5JV73
NOS1, P29475 = target: NOS1, P29475
DVL3, Q92997 = target: T2, DVL3, Q92997
T2 sequence (Q92997 244-331, limits assumed, looked up): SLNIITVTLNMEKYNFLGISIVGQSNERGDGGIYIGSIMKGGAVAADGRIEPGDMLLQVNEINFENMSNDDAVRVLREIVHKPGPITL

Inadl_10, Q8NI35 = target: Inadl_10, Q8NI35
DLG1_3, Q12959 = target: DLG1_3, Q12959
SCRIB_3, Q14160 = target: SCRIB_3, Q14160
SCRIB_1, Q14160 = target: SCRIB_1, Q14160
PTPN3, P26045 = target: PTPN3, P26045
DLG1_2, Q12959 = target: DLG1_2, Q12959
Inadl_5, Q8NI35 = target: Inadl_5, Q8NI35
TJP1_3, Q07157 = target: TJP1_3, Q07157
GRIP2_3, Q9C0E4 = target: GRIP2_3, Q9C0E4
Inadl_9, Q8NI35 = target: Inadl_9, Q8NI35
DFNB31_2, Q9P202 = target: T3, DFNB31_2, Q9P202
T3 sequence (Q9P202 274-371, limits assumed, looked up): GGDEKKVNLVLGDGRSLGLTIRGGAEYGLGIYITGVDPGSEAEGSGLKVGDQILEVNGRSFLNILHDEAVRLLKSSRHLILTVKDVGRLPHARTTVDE

GRIP1_5, Q9Y3R0 = target: T4, GRIP1_5, Q9Y3R0
T4 sequence (Q9Y3R0 568-668, limits assumed, looked up): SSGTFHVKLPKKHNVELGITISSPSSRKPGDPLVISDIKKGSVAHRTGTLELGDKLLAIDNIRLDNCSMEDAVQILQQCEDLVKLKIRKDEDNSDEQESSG

Inadl_8, Q8NI35 = target: Inadl_8, Q8NI35
TJP2_1, Q9UDY2 = target: TJP2_1, Q9UDY2
HTRA3, P83110 = target: T5, HTRA3, P83110
T5 sequence (P83110 354-453, limits assumed, looked up): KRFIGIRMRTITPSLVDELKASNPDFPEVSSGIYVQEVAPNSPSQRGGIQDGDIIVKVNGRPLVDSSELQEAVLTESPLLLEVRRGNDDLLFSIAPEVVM

LNX2_2, Q8N448 = target: T6, LNX2_2, Q8N448
T6 sequence (Q8N448 334-432, limits assumed, looked up): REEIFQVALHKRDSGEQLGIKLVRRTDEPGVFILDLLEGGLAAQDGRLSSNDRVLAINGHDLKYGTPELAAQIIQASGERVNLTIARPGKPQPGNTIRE

Inadl_4, Q8NI35 = target: Inadl_4, Q8NI35
PDLIM1, O00151 = target: PDLIM1, O00151
PDZRN4_1, Q6ZMN7 = target: PDZRN4_1, Q6ZMN7
DLG3_3, Q92796 = target: T7, DLG3_3, Q92796
T7 sequence (Q92796 374-475, limits assumed, looked up): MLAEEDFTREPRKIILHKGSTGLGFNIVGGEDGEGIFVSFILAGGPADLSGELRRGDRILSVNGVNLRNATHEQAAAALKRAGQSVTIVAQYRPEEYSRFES

APBA1_2, Q02410 = target: T8, APBA1_2, Q02410
T8 sequence (Q02410 742-832, limits assumed, looked up): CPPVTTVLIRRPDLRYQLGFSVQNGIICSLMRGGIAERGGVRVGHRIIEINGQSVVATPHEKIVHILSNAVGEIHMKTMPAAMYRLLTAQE

APBA1_1, Q02410 = target: T9, APBA1_1, Q02410
T9 sequence (Q02410 651-752, limits assumed, looked up): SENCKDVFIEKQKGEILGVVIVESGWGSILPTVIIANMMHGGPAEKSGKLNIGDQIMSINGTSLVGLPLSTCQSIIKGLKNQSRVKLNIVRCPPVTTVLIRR

GOPC, Q9HD26 = target: GOPC, Q9HD26
[1] = plain residues with an end cap or a label only (N-terminal biotin on a linker: (peg)3)
[2] = plain residues with an end cap or a label only (N-terminal biotin on a linker: ahx)

Chain of FRMPD3, Q5JV73 (Q5JV73 12-100): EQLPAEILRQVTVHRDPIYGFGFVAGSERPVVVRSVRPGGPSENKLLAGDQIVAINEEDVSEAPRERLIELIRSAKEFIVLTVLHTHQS
Chain of Inadl_4, Q8NI35 (Q8NI35 547-651): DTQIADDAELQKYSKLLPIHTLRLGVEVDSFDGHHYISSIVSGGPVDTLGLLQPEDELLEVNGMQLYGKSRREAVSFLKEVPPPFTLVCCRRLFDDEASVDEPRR
Chain of Inadl_8, Q8NI35 (Q8NI35 1425-1530): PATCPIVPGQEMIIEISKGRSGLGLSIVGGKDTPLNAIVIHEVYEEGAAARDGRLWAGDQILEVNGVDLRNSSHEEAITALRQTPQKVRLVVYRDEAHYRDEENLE
Chain of DLG1_3, Q12959 (Q12959 457-571): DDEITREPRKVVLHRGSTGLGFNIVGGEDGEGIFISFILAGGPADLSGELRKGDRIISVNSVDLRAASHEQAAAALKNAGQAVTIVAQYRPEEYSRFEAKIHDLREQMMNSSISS
Chain of Inadl_10, Q8NI35 (Q8NI35 1673-1763): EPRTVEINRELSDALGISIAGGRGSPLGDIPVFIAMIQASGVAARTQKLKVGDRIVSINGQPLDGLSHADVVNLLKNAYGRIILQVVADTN
Chain of PTPN3, P26045 (P26045 505-587): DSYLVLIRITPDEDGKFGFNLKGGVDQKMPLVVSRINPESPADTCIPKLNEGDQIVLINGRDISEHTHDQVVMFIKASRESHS
Chain of PDZRN4_1, Q6ZMN7 (Q6ZMN7 213-318): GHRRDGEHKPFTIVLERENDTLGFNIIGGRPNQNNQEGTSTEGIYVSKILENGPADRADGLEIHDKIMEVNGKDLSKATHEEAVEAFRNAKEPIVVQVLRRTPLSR
Chain of TJP1_3, Q07157 (Q07157 416-512): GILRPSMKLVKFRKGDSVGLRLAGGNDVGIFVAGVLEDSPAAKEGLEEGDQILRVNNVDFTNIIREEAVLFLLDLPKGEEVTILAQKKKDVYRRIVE
Chain of PDLIM1, O00151 (O00151 1-87): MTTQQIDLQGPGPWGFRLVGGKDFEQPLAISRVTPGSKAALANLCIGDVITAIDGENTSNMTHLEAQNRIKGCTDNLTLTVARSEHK
Chain of SCRIB_3, Q14160 (Q14160 999-1103): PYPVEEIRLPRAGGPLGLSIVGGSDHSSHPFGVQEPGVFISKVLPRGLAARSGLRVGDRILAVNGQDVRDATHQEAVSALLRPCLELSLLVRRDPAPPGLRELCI
Chain of NOS1, P29475 (P29475 9-101): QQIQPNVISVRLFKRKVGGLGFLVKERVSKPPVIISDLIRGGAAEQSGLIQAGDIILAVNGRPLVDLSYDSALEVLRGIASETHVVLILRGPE
Chain of GRIP2_3, Q9C0E4 (Q9C0E4 238-339): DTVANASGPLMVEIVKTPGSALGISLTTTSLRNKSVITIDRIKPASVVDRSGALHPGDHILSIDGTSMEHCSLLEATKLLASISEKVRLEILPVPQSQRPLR
Chain of TJP2_1, Q9UDY2 (Q9UDY2 24-128): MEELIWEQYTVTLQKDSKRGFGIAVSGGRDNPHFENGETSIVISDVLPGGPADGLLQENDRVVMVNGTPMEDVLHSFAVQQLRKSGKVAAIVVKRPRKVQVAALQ
Chain of DLG1_2, Q12959 (Q12959 314-412): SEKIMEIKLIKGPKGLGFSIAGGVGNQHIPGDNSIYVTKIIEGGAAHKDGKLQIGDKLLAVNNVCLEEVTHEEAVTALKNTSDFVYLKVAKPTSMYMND
Chain of NHERF4_1, Q86UT5-2 (Q86UT5 other isoform, or with tags, fused parts or gaps): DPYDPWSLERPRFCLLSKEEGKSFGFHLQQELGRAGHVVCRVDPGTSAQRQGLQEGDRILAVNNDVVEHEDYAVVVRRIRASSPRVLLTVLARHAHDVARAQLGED
Chain of SCRIB_1, Q14160 (Q14160 718-814): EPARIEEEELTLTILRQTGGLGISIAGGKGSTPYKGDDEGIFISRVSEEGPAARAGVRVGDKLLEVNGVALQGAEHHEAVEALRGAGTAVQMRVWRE
Chain of Inadl_5, Q8NI35 (Q8NI35 673-780): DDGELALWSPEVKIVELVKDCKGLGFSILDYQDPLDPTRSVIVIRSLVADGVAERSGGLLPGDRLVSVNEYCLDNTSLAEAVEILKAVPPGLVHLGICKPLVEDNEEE
Chain of Inadl_9, Q8NI35 (Q8NI35 1530-1615): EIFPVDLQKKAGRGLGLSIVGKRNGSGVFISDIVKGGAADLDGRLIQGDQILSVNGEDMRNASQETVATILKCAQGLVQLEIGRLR
Chain of AHNAK1, Q09666 (Q09666 4-100): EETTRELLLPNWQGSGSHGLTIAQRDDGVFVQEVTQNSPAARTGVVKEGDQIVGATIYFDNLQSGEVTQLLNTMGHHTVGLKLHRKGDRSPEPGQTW

B1: WNV-NS5, Q9Q6P4 (peptide)
chain: RYEDTTLVEDTVL
NHERF4_1, Q86UT5-2; [1]
  pKd: 4.17
AHNAK1, Q09666; [1]
  pKd: below the threshold
FRMPD1, Q5SYB0; [1]
  pKd: below the threshold
FRMPD3, Q5JV73; [1]
  pKd: 3.88
NOS1, P29475; [1]
  pKd: 3.64
DVL3, Q92997; [1]
  pKd: below the threshold
Inadl_10, Q8NI35; [1]
  pKd: below the threshold
DLG1_3, Q12959; [1]
  pKd: 3.51
SCRIB_3, Q14160; [1]
  pKd: 3.97
SCRIB_1, Q14160; [1]
  pKd: 3.95
PTPN3, P26045; [1]
  pKd: 4.37
DLG1_2, Q12959; [1]
  pKd: 3.77
Inadl_5, Q8NI35; [1]
  pKd: below the threshold
TJP1_3, Q07157; [1]
  pKd: below the threshold
GRIP2_3, Q9C0E4; [1]
  pKd: below the threshold
Inadl_9, Q8NI35; [1]
  pKd: below the threshold
DFNB31_2, Q9P202; [1]
  pKd: below the threshold
GRIP1_5, Q9Y3R0; [1]
  pKd: below the threshold
Inadl_8, Q8NI35; [1]
  pKd: below the threshold
TJP2_1, Q9UDY2; [1]
  pKd: below the threshold
HTRA3, P83110; [1]
  pKd: below the threshold
LNX2_2, Q8N448; [1]
  pKd: below the threshold
Inadl_4, Q8NI35; [1]
  pKd: below the threshold
PDLIM1, O00151; [1]
  pKd: below the threshold
PDZRN4_1, Q6ZMN7; [1]
  pKd: 3.94
DLG3_3, Q92796; [1]
  pKd: below the threshold
APBA1_2, Q02410; [1]
  pKd: below the threshold
APBA1_1, Q02410; [1]
  pKd: below the threshold
GOPC, Q9HD26; [1]
  pKd: 3.71

B2: RTKN, Q9BST9 (peptide)
chain: QPRTWLQSPV
NHERF4_1, Q86UT5-2; [2]
  pKd: below the threshold
AHNAK1, Q09666; [2]
  pKd: below the threshold
FRMPD1, Q5SYB0; [2]
  pKd: below the threshold
FRMPD3, Q5JV73; [2]
  pKd: below the threshold
NOS1, P29475; [2]
  pKd: 3.6
DVL3, Q92997; [2]
  pKd: below the threshold
Inadl_10, Q8NI35; [2]
  pKd: below the threshold
DLG1_3, Q12959; [2]
  pKd: 4.11
SCRIB_3, Q14160; [2]
  pKd: 3.67
SCRIB_1, Q14160; [2]
  pKd: 3.69
PTPN3, P26045; [2]
  pKd: 3.78
DLG1_2, Q12959; [2]
  pKd: 4.3
Inadl_5, Q8NI35; [2]
  pKd: below the threshold
TJP1_3, Q07157; [2]
  pKd: below the threshold
GRIP2_3, Q9C0E4; [2]
  pKd: below the threshold
Inadl_9, Q8NI35; [2]
  pKd: below the threshold
DFNB31_2, Q9P202; [2]
  pKd: below the threshold
GRIP1_5, Q9Y3R0; [2]
  pKd: below the threshold
Inadl_8, Q8NI35; [2]
  pKd: 4.89
TJP2_1, Q9UDY2; [2]
  pKd: below the threshold
HTRA3, P83110; [2]
  pKd: below the threshold
LNX2_2, Q8N448; [2]
  pKd: below the threshold
Inadl_4, Q8NI35; [2]
  pKd: below the threshold
PDLIM1, O00151; [2]
  pKd: below the threshold
PDZRN4_1, Q6ZMN7; [2]
  pKd: below the threshold
DLG3_3, Q92796; [2]
  pKd: 4.41
APBA1_2, Q02410; [2]
  pKd: below the threshold
APBA1_1, Q02410; [2]
  pKd: below the threshold
GOPC, Q9HD26; [2]
  pKd: 4.07

B3: ABCA1, O95477 (peptide)
chain: QDEKVKESYV
NHERF4_1, Q86UT5-2; [2]
  pKd: 3.48
AHNAK1, Q09666; [2]
  pKd: below the threshold
FRMPD1, Q5SYB0; [2]
  pKd: below the threshold
FRMPD3, Q5JV73; [2]
  pKd: below the threshold
NOS1, P29475; [2]
  pKd: 3.66
DVL3, Q92997; [2]
  pKd: 3.7
Inadl_10, Q8NI35; [2]
  pKd: below the threshold
DLG1_3, Q12959; [2]
  pKd: 3.76
SCRIB_3, Q14160; [2]
  pKd: 4.45
SCRIB_1, Q14160; [2]
  pKd: 4.15
PTPN3, P26045; [2]
  pKd: 5.04
DLG1_2, Q12959; [2]
  pKd: 5.09
Inadl_5, Q8NI35; [2]
  pKd: 3.73
TJP1_3, Q07157; [2]
  pKd: below the threshold
GRIP2_3, Q9C0E4; [2]
  pKd: below the threshold
Inadl_9, Q8NI35; [2]
  pKd: 4.29
DFNB31_2, Q9P202; [2]
  pKd: 4.79
GRIP1_5, Q9Y3R0; [2]
  pKd: below the threshold
Inadl_8, Q8NI35; [2]
  pKd: 4.68
TJP2_1, Q9UDY2; [2]
  pKd: 4.36
HTRA3, P83110; [2]
  pKd: 3.55
LNX2_2, Q8N448; [2]
  pKd: 3.64
Inadl_4, Q8NI35; [2]
  pKd: below the threshold
PDLIM1, O00151; [2]
  pKd: below the threshold
PDZRN4_1, Q6ZMN7; [2]
  pKd: 3.95
DLG3_3, Q92796; [2]
  pKd: 3.97
APBA1_2, Q02410; [2]
  pKd: 4.29
APBA1_1, Q02410; [2]
  pKd: below the threshold
GOPC, Q9HD26; [2]
  pKd: 4.28

— paper PMC9482650, “Quantitative fragmentomics allow affinity mapping of interactomes” (Nature Communications, 2022)
